Measured values taken from the supplement of paper PMC9112550, “Optimization of the antimicrobial peptide Bac7 by deep mutational scanning” (BMC Biology, 2022).

Test system: Escherichia coli TOP10
Test: shrunken log2 fold change of peptide-encoding DNA abundance (4.5 h post-induction vs induction); higher = less antimicrobial activity (less host growth inhibition)
Settings: time post-induction: 4.5 h; library: site-saturation at positions 5, 18, 19, 20
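Further: peptides expressed intracellularly from a pBAD plasmid library in pooled LB shake-flask culture, induced with 0.3% L-arabinose, DNA abundance read by NGS, three biological replicates, DESeq2 with apeglm shrinkage.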

Sequence | shrunken log2 fold change
RRIRNRPPRLPRPRPRPKEAPRP | -0.00208
RRIRLRPPRLPRPRPRPWTWPRP | 0.0307
RRIRRRPPRLPRPRPRPQCWPRP | 0.557
RRIRHRPPRLPRPRPRPFVNPRP | -0.124
RRIRMRPPRLPRPRPRPYFPPRP | -0.213
RRIRGRPPRLPRPRPRPAQSPRP | 0.723
RRIRHRPPRLPRPRPRPDGAPRP | -0.0729
RRIRERPPRLPRPRPRPSTFPRP | 2.07
RRIRNRPPRLPRPRPRPMGPPRP | 0.0762
RRIRKRPPRLPRPRPRPNKFPRP | -0.0338
RRIRYRPPRLPRPRPRPFDMPRP | -0.195
RRIRSRPPRLPRPRPRPKIMPRP | -0.246
RRIRERPPRLPRPRPRPHENPRP | -0.365
RRIRLRPPRLPRPRPRPAPLPRP | 0.273
RRIRRRPPRLPRPRPRPWIWPRP | -0.282
RRIRLRPPRLPRPRPRPSPQPRP | 0.362
RRIRLRPPRLPRPRPRPGSSPRP | 0.0118
RRIRQRPPRLPRPRPRPNFEPRP | -0.00188
RRIRPRPPRLPRPRPRPVDGPRP | 0.0909
RRIRGRPPRLPRPRPRPHRWPRP | 0.252
RRIRRRPPRLPRPRPRPNASPRP | -0.0114
RRIRERPPRLPRPRPRPQVHPRP | -0.445
RRIRHRPPRLPRPRPRPPHYPRP | 0.0175
RRIRLRPPRLPRPRPRPQAWPRP | 0.126
RRIRQRPPRLPRPRPRPWNAPRP | 0.00391

Sequence | shrunken log2 fold change
RRIRYRPPRLPRPRPRPIKNPRP | -0.275
RRIRSRPPRLPRPRPRPIRGPRP | -0.0109
RRIRSRPPRLPRPRPRPAMHPRP | -0.0199
RRIRVRPPRLPRPRPRPIDVPRP | -0.0749
RRIRVRPPRLPRPRPRPNHKPRP | -0.292
RRIRSRPPRLPRPRPRPYHFPRP | -1.8
RRIRNRPPRLPRPRPRPFDPPRP | -0.805
RRIRRRPPRLPRPRPRPGGQPRP | 0.175
RRIRHRPPRLPRPRPRPHKEPRP | -0.00832
RRIRSRPPRLPRPRPRPPCEPRP | -0.236
RRIRRRPPRLPRPRPRPNRFPRP | 0.156
RRIRVRPPRLPRPRPRPINIPRP | -0.347
RRIRERPPRLPRPRPRPDIDPRP | -0.191
RRIRERPPRLPRPRPRPGFWPRP | 0.407
RRIRVRPPRLPRPRPRPHLRPRP | 0.248
RRIRYRPPRLPRPRPRPEGIPRP | -0.0155
RRIRYRPPRLPRPRPRPTGWPRP | 0.088
RRIRFRPPRLPRPRPRPPGQPRP | 1
RRIRDRPPRLPRPRPRPHLQPRP | 0.157
RRIRHRPPRLPRPRPRPPFLPRP | -0.251
RRIRKRPPRLPRPRPRPNWLPRP | 0.246
RRIRGRPPRLPRPRPRPVTIPRP | 0.0068
RRIRYRPPRLPRPRPRPVFVPRP | -0.458
RRIRSRPPRLPRPRPRPATVPRP | -0.15
RRIRVRPPRLPRPRPRPIGMPRP | 0.211

Sequence | shrunken log2 fold change
RRIRWRPPRLPRPRPRPACMPRP | 0.164
RRIRLRPPRLPRPRPRPNSFPRP | -0.191
RRIRYRPPRLPRPRPRPEYYPRP | -0.0128
RRIRERPPRLPRPRPRPNPTPRP | 0.00617
RRIRSRPPRLPRPRPRPVPGPRP | 0.137
RRIRCRPPRLPRPRPRPAPYPRP | 0.0992
RRIRLRPPRLPRPRPRPPRNPRP | 0.356
RRIRRRPPRLPRPRPRPRYVPRP | 0.147
RRIRQRPPRLPRPRPRPNMIPRP | -0.209
RRIRKRPPRLPRPRPRPTEDPRP | 1.03
RRIRWRPPRLPRPRPRPEHHPRP | -0.0625
RRIRQRPPRLPRPRPRPRFIPRP | -0.398
RRIRDRPPRLPRPRPRPTNSPRP | 0.115
RRIRKRPPRLPRPRPRPQCAPRP | 0.28
RRIRRRPPRLPRPRPRPGYAPRP | 0.259
RRIRQRPPRLPRPRPRPDLMPRP | -0.08
RRIRPRPPRLPRPRPRPMKYPRP | -0.157
RRIRKRPPRLPRPRPRPFHTPRP | -0.0289
RRIRYRPPRLPRPRPRPSDNPRP | -0.827
RRIRHRPPRLPRPRPRPLVGPRP | 0.00867
RRIRHRPPRLPRPRPRPNTDPRP | -0.438
RRIRGRPPRLPRPRPRPQSYPRP | 0.113
RRIRWRPPRLPRPRPRPVVQPRP | -0.131
RRIRPRPPRLPRPRPRPEFSPRP | -0.0202
RRIRARPPRLPRPRPRPMTEPRP | 0.356

Sequence | shrunken log2 fold change
RRIRPRPPRLPRPRPRPVSWPRP | 0.704
RRIRNRPPRLPRPRPRPTMYPRP | -0.486
RRIRFRPPRLPRPRPRPKEEPRP | 0.0372
RRIRCRPPRLPRPRPRPIDFPRP | -0.458
RRIRARPPRLPRPRPRPTYQPRP | -0.163
RRIRWRPPRLPRPRPRPDLVPRP | 0.0575
RRIRYRPPRLPRPRPRPTMGPRP | 0.0568
RRIRLRPPRLPRPRPRPDRSPRP | -0.0286
RRIRFRPPRLPRPRPRPKIKPRP | -0.431
RRIRMRPPRLPRPRPRPINQPRP | 0.257
RRIRNRPPRLPRPRPRPKNVPRP | -0.267
RRIRQRPPRLPRPRPRPYPWPRP | -0.266
RRIRTRPPRLPRPRPRPDEIPRP | -0.235
RRIRIRPPRLPRPRPRPSPTPRP | -0.424
RRIRCRPPRLPRPRPRPFNAPRP | -0.521
RRIRARPPRLPRPRPRPNSVPRP | 0.0162
RRIRARPPRLPRPRPRPDNYPRP | 0.0577
RRIRCRPPRLPRPRPRPVHQPRP | 0.11
RRIRRRPPRLPRPRPRPGNGPRP | 0.372
RRIRLRPPRLPRPRPRPHFQPRP | -0.131
RRIRDRPPRLPRPRPRPQSAPRP | 0.138
RRIRARPPRLPRPRPRPRPKPRP | 0.916
RRIRRRPPRLPRPRPRPCHNPRP | -0.278
RRIRLRPPRLPRPRPRPVQLPRP | 0.0978
RRIRKRPPRLPRPRPRPLFNPRP | 0.0323

Sequence | shrunken log2 fold change
RRIRLRPPRLPRPRPRPWFIPRP | -0.738
RRIRNRPPRLPRPRPRPYNYPRP | -0.067
RRIRWRPPRLPRPRPRPWWKPRP | -0.00743
RRIRKRPPRLPRPRPRPAKRPRP | 2.15
RRIRTRPPRLPRPRPRPGGFPRP | 0.413
RRIRMRPPRLPRPRPRPILWPRP | 0.00288
RRIRARPPRLPRPRPRPCWYPRP | -0.16
RRIRCRPPRLPRPRPRPVVQPRP | -0.235
RRIRHRPPRLPRPRPRPCMFPRP | -0.995
RRIRWRPPRLPRPRPRPHKHPRP | -0.117
RRIRRRPPRLPRPRPRPLWTPRP | 0.129
RRIRDRPPRLPRPRPRPRDTPRP | 0.575
RRIRKRPPRLPRPRPRPSTPPRP | 0.0478
RRIRERPPRLPRPRPRPQNPPRP | -0.213
RRIRKRPPRLPRPRPRPHRSPRP | 0.0882
RRIRHRPPRLPRPRPRPQWGPRP | -0.149
RRIRSRPPRLPRPRPRPMYTPRP | -0.0916
RRIRRRPPRLPRPRPRPASRPRP | 0.202
RRIRSRPPRLPRPRPRPNHCPRP | -0.415
RRIRQRPPRLPRPRPRPTKFPRP | -0.203
RRIRPRPPRLPRPRPRPTYPPRP | -0.137
RRIRMRPPRLPRPRPRPCQWPRP | -0.152
RRIRFRPPRLPRPRPRPLEIPRP | -0.0193
RRIRNRPPRLPRPRPRPMILPRP | -0.0112
RRIRCRPPRLPRPRPRPCFQPRP | -0.212
